Where two headings read alike, the source gives them in different places.
What was measured:
38 kD esterase = 38 kD esterase (Aspergillus awamori, UniProt Q9P979); experiment: API-20 enzyme test strip, substrate specificity for 38 kD esterase (Table 2); format: biochemical, Aspergillus niger; conditions: API-20 strip
Description: Purified 38 kD esterase was analyzed for a variety of biochemical activities with an API-20 enzyme test strip (BioMerieux Vitek) according to the manufacturers instructions. […] “+++” indicates very strong response, “++” indicates strong response and “+” indicates activity shown towards substrate. “−” means no activity detected.

[1] = pH and temperature optimum of 38 kD esterase activity on methyl ferulate; format: biochemical; conditions: for maximal activity: methyl ferulate
Description: The enzyme sample was chromatographed by hydrophobic interaction chromatography (Poros® HPEM phenyl ether, Perseptive BioSystems, perfusion chromatography, […]). The column was connected to a BioCad® Perfusion Chromatography Workstation (Perseptive BioSystems) and equilibrated with 5 column volumes Tris-HCl (50 mM, pH 7.4) plus 1.2 M ammonium sulfate. The sample (205 ml) was applied to the column and separated at a flow rate of 30 ml/min with a linear gradient from 1.2 M to 200 mM ammonium sulfate over 20 column volumes. […] Four fractions eluting at 750 mM ammonium sulfate contained 83% of the starting FAE activity. Active fractions were pooled (60 ml), dialysed by ultrafiltration into start buffer for next chromatographic step (10 kDa membrane, 20L of 25 mM sodium acetate buffer pH 5.0). The sample was concentrated to 10 ml in preparation for ion exchange chromatography.
(§1) The 38 kD esterase isolated according to Example 1 was analyzed for biochemical properties. […] When the 38 kD esterase was incubated in buffer for 30 minutes without substrate at pH 5.1, the temperature optima was 55° C.

[2] = Isoelectric point by isoelectric focusing (IEF) gel; format: physicochemical
Description: Upon native PAGE of a desalted active fraction from HPSEC a single protein band was observed, The isolelectric point of the FAE was determined using Phast gel Dry IEF equilibrated with a solution ampholyte, (20% final concentration, containing a mix of pI 2-4, 80%, pI 3-10 20%) Glycerol (10%) for 1 hour. Separation was performed as per manufacturers recommendation (Pharmacia Biotechnology, Dry IEF instruction bulletin) and stained with coomassie R-250. The sample migrated as a single protein band with an isolelectric point of about 2.8.

[3] = Activity of purified 38 kD esterase toward natural and synthetic substrates (in words); format: biochemical; conditions: purified enzyme
Description: as §1

[4] = from A. niger CBS120.49 grown on oat spelt xylan; cited from earlier work
[5] = from A. niger CBS120.49; cited from earlier work
[6] = substrate: COC(=O)/C=C/c1ccc(O)c(OC)c1; experiment: purified protein, by the assay type; conditions: other: substrate of purified 38 kD esterase
[7] = substrate: COc1cc(/C=C/C(=O)OC[C@@H]2O[C@@H](O[C@@H]3[C@@H](O)[C@H](O[C@@H]4COC(O)[C@H](O)[C@H]4O)OC[C@H]3O)[C@H](O)[C@H]2O)ccc1O; experiment: purified protein, by the assay type; conditions: other: substrate of purified 38 kD esterase
[8] = substrate: COc1cc(/C=C/C(=O)OC[C@@H]2O[C@@H](O[C@@H]3[C@@H](O)[C@H](O[C@@H]4COC(O)[C@H](O)[C@H]4O)OC[C@H]3O[C@@H]3OC[C@@H](O)[C@H](O)[C@H]3O)[C@H](O)[C@H]2O)ccc1O; experiment: purified protein, by the assay type; conditions: other: substrate of purified 38 kD esterase
[9] = substrate: COc1cc(/C=C/C(=O)OC[C@@H]2O[C@@H](O[C@H]3[C@H](O)COC(O)[C@@H]3O)[C@H](O)[C@H]2O)ccc1O; experiment: purified protein, by the assay type; conditions: other: substrate of purified 38 kD esterase

## CCCC(=O)Oc1ccc2ccccc2c1 [2-naphthyl butyrate]
38 kD esterase; pH 6.5
  Activity: (+++)

## OC[C@H]1O[C@@H](Oc2ccc3cc(Br)ccc3c2)[C@H](O)[C@@H](O)[C@@H]1O [6-Br-2-naphthyl-βD-glucopyranoside]
38 kD esterase; pH 5.4
  Activity: (+++)

## OC[C@H]1O[C@H](Oc2ccc3ccccc3c2)[C@H](O)[C@@H](O)[C@@H]1O [2-naphthyl-αD-glucopyranoside]
38 kD esterase; pH 5.4
  Activity: (+)

## OC[C@H]1O[C@@H](Oc2ccc3ccccc3c2)[C@H](O)[C@@H](O)[C@H]1O [2-naphthyl-βD-galactopyranoside]
38 kD esterase; pH 5.4
  Activity: (++)

## CCCCCCCC(=O)Oc1ccc2ccccc2c1 [2-naphthyl caprylate]
38 kD esterase; pH 7.5
  Activity: (++)

## COc1ccccc1NC(=O)c1cc2cc(Br)ccc2cc1OP(=O)(O)O [Naphthol-AS-BI-phosphate]
38 kD esterase; pH 5.4
  Activity: (++)

## OC[C@H]1O[C@H](Oc2ccc3cc(Br)ccc3c2)[C@H](O)[C@@H](O)[C@H]1O [6-Br-2-naphthyl-αD-galactopyranoside]
38 kD esterase; pH 5.4
  Activity: (+++)

## CCCCCCCCCCCCCC(=O)Oc1ccc2ccccc2c1 [2-naphthyl myristate]
38 kD esterase; pH 7.5
  Activity: (+)

## O=P(O)(O)Oc1ccc2ccccc2c1 [2-naphthyl phosphate]
38 kD esterase; pH 5.4
  Activity: (+)

B1: 38 kD esterase: esterase derived from Aspergillus niger, about 38 kD on SDS-PAGE, amino acid sequence SEQ. ID NO:28 (protein)
chain: MKQFSAKHVLAVVVTAGHALAASTQGISEDLYSRLVEMATISQAAYADLCNIPSTIIKGEKIYNSQTDINGWILRDDSSKEIITVFRGTGSDTNLQLDTNYTLTPFDTLPQCNGCEVHGGYYIGWVSVQDQVESLVKQQVSQYPDYALTVTGHSLGASLAALTAAQLSATYDNIRLYTFGEPRSGNQAFASYMNDAFQASSPDTTQYFRVTHANDGIPNLPPVEQGYAHGGVEYWSVDPYSAQNTFVCTGDEVQCCEAQGGQGVNNAHTTYFGMTSGACTW
[1]; 250 μM methyl ferulate present
  temperature optimum: 65 °C
[1]; pH 3
  maximal activity: 83%
[1]; pH 8
  maximal activity: 25%
[2]
  pI (isoelectric point): about 2.8
[3]
  activity toward natural feruloyl and p-coumaroyl esters, cell walls of wheat bran and sugar beet pulp, wheat flour, pentosan fraction, ethyl and methyl esters of ferulic and p-coumaric acid: active

B2: FAE-III: ferulic acid esterase isolated from Aspergillus niger CBS 120.49 (Faulds et al.) (protein, UniProt O42807 22-281, looked up)
Feruloyl esterase A: ASTQGISEDLYNRLVEMATISQAAYADLCNIPSTIIKGEKIYNAQTDINGWILRDDTSKEIITVFRGTGSDTNLQLDTNYTLTPFDTLPQCNDCEVHGGYYIGWISVQDQVESLVKQQASQYPDYALTVTGHSLGASMAALTAAQLSATYDNVRLYTFGEPRSGNQAFASYMNDAFQVSSPETTQYFRVTHSNDGIPNLPPADEGYAHGGVEYWSVDPYSAQNTFVCTGDEVQCCEAQGGQGVNDAHTTYFGMTSGACTW
[4]
  pI: 3.3
[5]
  pH optimum: 5
  temperature optimum: 55-60 °C

B3: 38 kD esterase (Aspergillus awamori) (protein)
chain: ASTQGISEDLYSRLVEMATISQAAYADLCNIPSTIIKGEKIYNSQTDINGWILRDDSSKEIITVFRGTGSDTNLQLDTNYTLTPFDTLPQCNGCEVHGGYYIGWVSVQDQVESLVKQQVSQYPDYALTVTGHSLGASLAALTAAQLSATYDNIRLYTFGEPRSGNQAFASYMNDAFQASSPDTTQYFRVTHANDGIPNLPPVEQGYAHGGVEYWSVDPYSAQNTFVCTGDEVQCCEAQGGQGVNNAHTTYFGMTSGACTW
[6]
  Km: 2080 µM
  Vmax: 87 µmol/min/mg
[7]
  Km: 19 µM
  Vmax: 498 µmol/min/mg
[8]
  Km: 52 µM
  Vmax: 307 µmol/min/mg
[9]
  Km: 78 µM
  Vmax: 276 µmol/min/mg

Source: US6828136B2, “Esterase enzymes, DNA encoding esterase enzymes and vectors and host cells incorporating same” (Genencor International, Inc., priority 1996, dated 2004)
